# Data as given in patent US20250320281A1.
# Experiments:
# Experiment in all cases: cell-based or functional assay
# [1] = biological target: HIV-1 IAVI-C22 envelope glycoprotein (Env) on pseudovirus (HIV-1)
# [2] = biological target: HIV-1 92BR020 envelope glycoprotein (Env) on pseudovirus (HIV-1)
# [3] = biological target: HIV-1 envelope glycoprotein (Env) of isolate MGRM-A-006, clade A (HIV-1)
# [4] = biological target: HIV-1 Env of pseudovirus MGRM-Chronic-B-012 (HIV-1)
# [5] = biological target: HIV-1 Env of isolate TRJ0.58 (Acute), clade B, on pseudovirus (HIV-1)
# [6] = biological target: HIV-1 IAVI-C18 envelope glycoprotein (Env) on pseudovirus (HIV-1)
# [7] = biological target: HIV-1 Env of isolate 98IN022 (clade C) (HIV-1 isolate 98IN022)
# [8] = biological target: HIV-1 Env of pseudovirus MGRM-G-016 (HIV-1, clade G isolate MGRM-G-016)
# [9] = biological target: HIV-1 93UG077 envelope glycoprotein (Env) on pseudovirus (HIV-1)
# [10] = biological target: aMLV envelope protein on pseudovirus
# [11] = biological target: HIV-1 envelope glycoprotein (Env) of isolate MGRM-A-005, clade A (HIV-1)
# [12] = biological target: HIV-1 IAVI-C3 envelope glycoprotein (Env) on pseudovirus (HIV-1)
# [13] = biological target: HIV-1 APV-6 envelope glycoprotein (Env) on pseudovirus (HIV-1)
# [14] = biological target: HIV-1 Env of pseudovirus MGRM-Chronic-B-024 (HIV-1)
# [15] = biological target: HIV-1 Env of isolate SF162 (subtype B pseudovirus) (HIV-1) (UniProt P19550)
# [16] = biological target: HIV-1 MGRM-C-027 Env (pseudovirus, clade C) (HIV-1)
# [17] = biological target: HIV-1 Env of isolate MGRM-AE-004 (HIV-1)
# [18] = biological target: HIV-1 MGRM-C-028 Env (pseudovirus, clade C) (HIV-1)
# [19] = biological target: HIV-1 Env of isolate MGRM-Chronic-B-017 (subtype B pseudovirus) (HIV-1)
# [20] = biological target: aMLV envelope, on pseudovirus (negative control virus)
# [21] = biological target: HIV-1 Env of isolate MGRM-AE-005 (HIV-1)
# [22] = biological target: HIV-1 Env of isolate MGRM-F1-006 (pseudovirus) (HIV-1)
# [23] = biological target: HIV-1 Env of isolate 92UG024 (clade D), on pseudovirus (HIV-1)
# [24] = biological target: HIV-1 Env of isolate MGRM-C-028 (HIV-1)
# [25] = biological target: HIV-1 Env of isolate MGRM-D-022 (pseudovirus) (HIV-1)
# [26] = biological target: HIV-1 Env of isolate 92UG114 (pseudovirus) (HIV-1)
# [27] = biological target: HIV-1 Env of isolate MGRM-D-016 (pseudovirus) (HIV-1)
# [28] = biological target: HIV-1 Env of isolate MGRM-Chronic-B-001 (subtype B pseudovirus) (HIV-1)
# [29] = biological target: HIV-1 Env of isolate 92UG024 (pseudovirus) (HIV-1)
# [30] = biological target: HIV-1 Env of isolate MGRM-G-027 (HIV-1)
# 1443_C16 (PG16) (TCN-116) (antibody), sequence (VH): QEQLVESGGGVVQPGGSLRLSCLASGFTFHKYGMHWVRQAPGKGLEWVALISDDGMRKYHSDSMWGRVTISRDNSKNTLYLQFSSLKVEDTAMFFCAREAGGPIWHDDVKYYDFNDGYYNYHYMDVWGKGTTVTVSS
# 1443_C16 (PG16) (TCN-116) (antibody), sequence (VL): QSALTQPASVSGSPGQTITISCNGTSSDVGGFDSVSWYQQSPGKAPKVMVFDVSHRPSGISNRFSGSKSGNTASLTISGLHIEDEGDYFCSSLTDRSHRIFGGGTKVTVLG
# 4993_K13 (PGT-141) (antibody), sequence (VH): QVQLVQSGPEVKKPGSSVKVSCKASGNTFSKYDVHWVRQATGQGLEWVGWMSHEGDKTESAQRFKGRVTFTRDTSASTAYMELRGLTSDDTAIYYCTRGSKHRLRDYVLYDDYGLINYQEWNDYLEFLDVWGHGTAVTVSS
# 4993_K13 (PGT-141) (antibody), sequence (VL): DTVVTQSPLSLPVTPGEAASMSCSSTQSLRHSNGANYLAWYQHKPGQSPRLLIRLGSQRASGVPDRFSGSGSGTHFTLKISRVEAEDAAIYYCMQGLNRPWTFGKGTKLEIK
Substance,"IC50, pseudovirus neutralization [1]","IC50, pseudovirus neutralization [2]","IC50 (µg/ml), pseudovirus neutralization [3]","IC50 (µg/ml), pseudovirus neutralization [4]","IC50 (µg/ml), pseudovirus neutralization [5]","IC50, pseudovirus neutralization [6]","IC50 (µg/ml), pseudovirus neutralization [7]","IC50 (µg/ml), pseudovirus neutralization [8]","IC50, pseudovirus neutralization [9]","IC50, pseudovirus neutralization [10]","IC50 (µg/ml), pseudovirus neutralization [11]","IC50, pseudovirus neutralization [12]","IC50, pseudovirus neutralization [13]","IC50 (µg/ml), pseudovirus neutralization [14]","IC50 (µg/mL), pseudovirus neutralization [15]",IC50 [17],"IC50 (µg/mL), pseudovirus neutralization [19]",IC50 [21],"IC50, pseudovirus neutralization [22]",neutralization IC50 [24],further results
2G12 (antibody),> 50 µg/mL,2.26 µg/mL,13.8 µg/mL,0.22 µg/mL,> 50 µg/mL,> 50 µg/mL,> 50 µg/mL,> 50 µg/mL,> 50 µg/mL,> 50 µg/mL,> 50 µg/mL,> 50 µg/mL,5.3 µg/mL,> 50 µg/mL,,,,,,,
1443_C16 (PG16) (TCN-116) (antibody),0.0687 µg/mL,> 50 µg/mL,> 50 µg/mL,3.74 µg/mL,1.16 µg/mL,0.0067 µg/mL,0.003 µg/mL,11.3 µg/mL,> 50 µg/mL,> 50 µg/mL,0.09 µg/mL,14.8 µg/mL,0.08 µg/mL,0.01 µg/mL,,,,,,,
5123_A06 (PGT-125) (antibody),,,,,,,,,,,,,,,0.004 µg/mL,> 50 µg/mL,> 50 µg/mL,0.01 µg/mL,0.035 µg/mL,14 µg/mL,"IC50 neutralization [16]: > 10 µg/mL; IC50 neutralization [18]: 5.78 µg/mL; IC50, pseudovirus neutralization [20]: > 10 µg/mL; IC50, pseudovirus neutralization [23]: > 10 µg/mL; IC50, pseudovirus neutralization [25]: 0.04 µg/mL; IC50, pseudovirus neutralization [26]: 0.349 µg/mL; IC50, pseudovirus neutralization [27]: 0.12 µg/mL; IC50 (µg/mL), pseudovirus neutralization [28]: > 50 µg/mL; IC50, pseudovirus neutralization [29]: > 50 µg/mL"
2F5 (antibody),> 50 µg/mL,> 50 µg/mL,15.7 µg/mL,17.6 µg/mL,> 50 µg/mL,> 50 µg/mL,> 50 µg/mL,16.8 µg/mL,4.45 µg/mL,> 50 µg/mL,5.7 µg/mL,> 50 µg/mL,0.1 µg/mL,> 50 µg/mL,,,,,,,
4E10 (antibody),1.02 µg/mL,41.4 µg/mL,9.87 µg/mL,48 µg/mL,11.9 µg/mL,> 50 µg/mL,0.53 µg/mL,1.02 µg/mL,11.2 µg/mL,> 50 µg/mL,4.09 µg/mL,5 µg/mL,0.4 µg/mL,9.19 µg/mL,,,,,,,
4993_K13 (PGT-141) (antibody),,,,,,,,,,,,,,,,,,,,,"IC50 (µg/mL), pseudovirus neutralization [30]: > 50 µg/mL"
4838_L06 (PGT-121) (antibody),,,,,,,,,,,,,,,0.005 µg/mL,> 50 µg/mL,> 50 µg/mL,> 50 µg/mL,5.33 µg/mL,0.472 µg/mL,"IC50, pseudovirus neutralization [20]: > 10 µg/mL; IC50, pseudovirus neutralization [23]: > 10 µg/mL; IC50, pseudovirus neutralization [25]: > 50 µg/mL; IC50, pseudovirus neutralization [26]: 0.004 µg/mL; IC50, pseudovirus neutralization [27]: > 50 µg/mL; IC50 (µg/mL), pseudovirus neutralization [28]: 0.102 µg/mL; IC50, pseudovirus neutralization [29]: > 50 µg/mL"
5141_B17 (PGT-126) (antibody),,0.0163 µg/mL,,,,,,,0.0256 µg/mL,,,,,,0.003 µg/mL,> 50 µg/mL,> 50 µg/mL,0.324 µg/mL,0.078 µg/mL,0.196 µg/mL,"IC50 neutralization [16]: 1.14 µg/mL; IC80 (pseudovirus neutralization) [2]: 0.0457 µg/mL; IC90 (pseudovirus neutralization) [2]: 0.0846 µg/mL; IC95 (pseudovirus neutralization) [2]: 0.152 µg/mL; IC50 neutralization [18]: 0.283 µg/mL; IC50, pseudovirus neutralization [20]: > 10 µg/mL; IC50, pseudovirus neutralization [23]: > 10 µg/mL; IC50, pseudovirus neutralization [25]: > 50 µg/mL; IC80 (pseudovirus neutralization) [9]: 0.102 µg/mL; IC90 (pseudovirus neutralization) [9]: 0.238 µg/mL; IC95 (pseudovirus neutralization) [9]: 0.577 µg/mL; IC50, pseudovirus neutralization [26]: 0.038 µg/mL; IC50, pseudovirus neutralization [27]: > 50 µg/mL; IC50 (µg/mL), pseudovirus neutralization [28]: > 50 µg/mL; IC50, pseudovirus neutralization [29]: > 50 µg/mL"
5145_B14 (PGT-127) (antibody),,,,,,,,,,,,,,,0.019 µg/mL,> 50 µg/mL,> 50 µg/mL,> 50 µg/mL,7.17 µg/mL,7.57 µg/mL,"IC50, pseudovirus neutralization [25]: > 50 µg/mL; IC50, pseudovirus neutralization [26]: 7.09 µg/mL; IC50, pseudovirus neutralization [27]: > 50 µg/mL; IC50 (µg/mL), pseudovirus neutralization [28]: > 50 µg/mL; IC50, pseudovirus neutralization [29]: > 50 µg/mL"
